How the values were obtained:
[1] = target: KDEL receptor (KDEL‐R) (mouse (endogenous in DRG neurons)) (UniProt Q99JH8)
[2] = target: KDEL receptor (KDEL‐R) (mouse (endogenous in DRG neurons)) (UniProt Q99JH8); remark: listed apart in the source
[3] = target: KDEL receptor (KDEL‐R) (mouse (endogenous in DRG neurons)) (UniProt Q99JH8); remark: listed apart in the source
[4] = target: KDEL receptor (KDEL‐R) (mouse (endogenous in DRG neurons)) (UniProt Q99JH8); remark: listed apart in the source
[5] = target: KDEL receptor (KDEL‐R) (mouse (endogenous in DRG neurons)) (UniProt Q99JH8); remark: listed apart in the source

UniProt Q99JH8, sequence (Q99JH8 whole entry): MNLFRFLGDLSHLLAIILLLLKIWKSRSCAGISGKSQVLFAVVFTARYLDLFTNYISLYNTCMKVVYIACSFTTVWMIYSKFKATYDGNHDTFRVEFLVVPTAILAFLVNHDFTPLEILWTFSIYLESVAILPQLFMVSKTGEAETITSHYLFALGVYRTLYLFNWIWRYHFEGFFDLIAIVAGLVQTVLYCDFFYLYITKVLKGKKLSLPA

| neurite length in dissociated DRG cell cultures, CDNF-ΔKTEL 18 μg/mL, 3 days (Figure 7B) [1] | neuritic area of DRG explants after 72 h, CDNF-ΔKTEL 1.8 and 18 μg/mL (Figure 1C) [2] | neurite length of DRG explants after 72 h (Figure 1B) [3] | neurite length of DRG explants after NGF deprivation, CDNF-ΔKTEL 18 μg/mL for 48 h (Figure 3B) [4] | neurite length in dissociated DRG cell cultures, CDNF 18 μg/mL, 3 days (Figure 7B) [1] | neuritic area of DRG explants after 72 h, CDNF 18 μg/mL (Figure 1C) [2] | neurite length of DRG explants after 72 h, CDNF 1.8 and 18 μg/mL (Figure 1B) [3] | neurite length of DRG explants after NGF deprivation, CDNF 18 μg/mL for 48 h (Figure 3B) [4] | Substance | viable cells by LDH release, DRG explants under trophic deprivation, CDNF-ΔKTEL (Figure 3E) [5] | viable cells by LDH release, DRG explants under trophic deprivation, CDNF 18 μg/mL (Figure 3E) [5] |
| --- | --- | --- | --- | --- | --- | --- | --- | --- | --- | --- |
| < 200 μm | 2.9e+06 μm^2 | 200 μm | 200 μm |  |  |  |  | CDNF‐ΔKTEL (CDNF without the last four residues KTEL) (domain or fragment) | 61% |  |
|  |  |  |  | 390 μm | 5.2e+06 μm^2 | 600 μm | 500 μm | cerebral dopamine neurotrophic factor (CDNF) (from UniProt Q49AH0 25-187) (ligand) |  | 75% |

— PMC12362333
